Data reported in the domain aggregation screens of Martell et al. (2025).

Assay: soluble fraction after stress (log2 fold change); higher = more stays soluble; pooled small domains, quantitative proteomics
Details: stress: 50 degC
In short: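 Pooled custom libraries of small protein domains were each held under stress at 50°C. The read-out, high-throughput quantitative proteomics, tracked how much of each protein stayed soluble. This is reported as a base-two log fold change used to indicate aggregation propensity. Higher values mean more protein remains in solution.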

Point of comparison: “HMDANAYTYKVSEDTDTRTGEKIFLVKVAEKLSRKEYIVVNNYMKSLGSYYSKFKHAFLFKENPTEKL”, “soluble fraction (log2)” value -0.23. Against it:
- HMEPESTMIEISETLTNERLDRYLATKLPNVSRGGIQRLLREGNILVNGKKAKPTQHPVAGQKIEITWPNP — higher, 0.0857
- HMSKKTQKDEVVDLFLKTGNEPLHYKEISKKTGIIVHNVRRITGQNVVGKTDNPVFKRVSPGVYKLID — lower, -0.546
- HMDKSNEVLMNHYRKQEINQAKKRLEEEKMSIIQVLQLTNKEVITTDELLEALYISKEQLLDEIINTTQ — within 0.2 log units, -0.0889
- HMADYSMDDNAWNAKKADIDEWFEANPDFSANKAITDGLFSIGDSQVEMRKRYWASIAGVFAGLPNSPIG — within 0.2 log units, -0.152
- HMKIELTDQQKSLVVDEWNKGEANPPSLLQLIRLAYPDQPHLDGRSKEGKAVKAFLATRDINPLA — higher, 0.0239
- HMVIVGGDVIVHYVDTEGKKISDDVVKSGNVGEDYSTDQKTILGYRFKEVQGNTSGKFTDKTQVVTYIYT — higher, 0.404
- HMGMNKEHFIIELKIYLKALNPKDQAIILAKYKALFDARVAEGETEEQVAKSLGKPRVIAEEILKEQGIE — within 0.2 log units, -0.236
- HMKVNMIIVMKPGARETDIQEVSNVLKSAGLGVHISKGTERTIIGVIGDKRLLNGIPLDLMHGVDKLVPIM — higher, 0.0193
- HMKPTVKVPNVVNLSLRNAQIQLQNYGLEVGSISYESSRFKNAVLRQSISEGSVVEKGTTINLVISDGL — within 0.2 log units, -0.203
- HMNRITEFVVPEGTKKIRADKLLAESFPDHSRSDFHRAFDASLVRLEGQPISKNRKISQGDVLVFEMPEI — higher, 0.281
- HMDVEMLIDKYQLNDSEAEVLRFMKKNRQSLKTIGIRDVAKATYVSTATIINMAKKIGYSGYSELVFALGN — within 0.2 log units, -0.0472
- HMAQLSDMLTYLRKRKGLSQQELANTLKISRSAIGMYETGKREPDLETLEVFADFYNVDMNTLTGKA — within 0.2 log units, -0.143
- HMSVPVDEVLAALTQKLTDLRTQAMAAKDFSAVDALKAALTEAGVEVRMSKTGVELIAGPRVDAKKLGTL — higher, -0.03
- HMPQNVSVPDVTNMTQAEAESKLKEKNLAVGNIIPELSTTVEKDKVTRTNPESGSNVRKNSKVDIYVSQG — higher, 0.0455
- HMQRFIHITVSDVHQATRLLEEEMQLTNYSVAENNAIKIFEFTYEPQEINHLFGKNGIEVSSLFIGS — within 0.2 log units, -0.134
- HMLPTVSITGHIFIRSGSPLNRIFVGEKIYHVGDHIDRDWVIESIGIDTLTIRSGTLSTQLPL — lower, -2.87
- HMISKRFQIDEDNSNKRIDIFLTQSLDSISRGIVQQLILENKVEVNGGPVKRNYLIKIGDVIDVKIDL — lower, -0.939
- HMTFDWAAYEISEKEIRVMSLVAEGFSNKEIAQELFLSEGTVRNYISNILEKLGLRDRTQLAVHYLKAV — lower, -1.28
- HMGLSAEAARMAIQDAGLSKEDFAQKLGIKKVERVVEWEAGTSKPTFVQAQKIANATNIPFGYLFLVNPPK — higher, 0.0125
- HMGASVGEVESVKTASEIYTAAAGKIVAVNDAVAKDPSLVNSDPYGNGWLVKLEIADLSAINA — higher, 0.000115
- HMKSAIGEEKAENFAFADLGMDPLSAEGVRTEFGFEQGQFVYKVYFTADGTEYEYWIKASDGSVVKKGMDL — lower, -0.891
- HMKEVDERPWGKYEVLLDAPDVKVKRITVNPGQRLSYQYHEKRAEVWTVVSGILTIILEDDKLFRG — higher, 0.237
- HMDLGEQIIEKLRAAGGFLAITDKSPAEEIYELFATSKKNYKKAVGGLYKKGLLVIEDDGIRLTPAGR — within 0.2 log units, -0.102
- HMSKISKENEQQVIQIVQTLLLNVQDKSLITTQILNEKINLAVSLDTKYKENLDRDYIIEELIRRYSVW — lower, -1.12
- HMREVVLNRIGSVAVQRATTRTWEEWVVTLDAEGMRGKEHRDVVGHLLRAHELTSWWAQMVSVGYEQSRGQ — within 0.2 log units, -0.166
- HMDPQDGTVKFFNGARGFGFITPDGGGADVFVHVSAVERAGLTQLVEGQRVNFQTLPDTKGKGPKAVNLKV — higher, 0.0729
- HMKRNLESVLDHIEGIGPKRRKALYKHFGNLDAMRVAELEELESVEGMNKKAALAVYEFFRRNS — higher, 0.254
- HMKRVPFAFAGDMLRWAAWLYHVEKRTQNEIAEELEVSRQTVANYLSEAMSQGLVQVQLRSDIIE — lower, -1.52
- HMQTAAANPSPESILQAREAAGLSQSEAGALIYSGLRSWQHWEWGTRRMHPGLFELFLKKTGQI — lower, -1.7
- HMSMSLQFLSRRIRLQREKRGLKQHDIAHALQISPQAVSKWERGENAPDIALLRPLAGLLGVSIDWLMGGD — lower, -2.15
- HMLPLLAFDEKLNRLGYGGGFYDRTLASLAHKGNTITAIGIAYESQKMDKVPTGYFDRPLDGVLTPSGLIM — higher, 0.0274
- HMDRPARDEAQSWLADVLADGPVPTAEIREEAEAAGLAWRTIQRARIALSVEPIRGDGRNAWLWQLPG — lower, -1.42
- HMTFVHTQIEATKEWIISHPLDKHPAVAVVDSAGSIVIGEVDYISKSIVRLRFTAEFSGKAYL — lower, -0.598
- HMGAGEQMLPKVMFAEGDRVVHKVFGEGTVVTVDRPAQTYDIQFDKLRGTRRIMFRAELEGI — lower, -0.554
- HMRPTDVLNYDESMRILNFSNNRVGFKHLMDAKGIEQVIFKNRKIGYRKSEILALKSELEAEQK — within 0.2 log units, -0.341
- HMLPRNKRIEIALTYIYGLGRHAATVVLKHANISPDKRTDDLDENDVRKLRDAIDANFRVEGDLRR — within 0.2 log units, -0.0528
